Measurements reported in US7132252B2, “Methods for detecting the interaction of compounds with cytochrome P450 using optical molecular sensors” (Invitrogen Corporation, priority 1998, dated 2006).
Where two headings read alike, the source gives them in different places.

What was measured:
CYP3A4 [1] = molecular target: T1, CYP3A4 (Homo sapiens, UniProt P08684)
CYP3A4 [2] = molecular target: T1, CYP3A4; assay: Kinetic properties of fluorescein-based fluorogenic substrates with CYP 3A4; type: biochemical; conditions: for K1/2max: concentration at 1/2 maximal velocity for sigmoidal kinetics; for vmax: for sigmoidal kinetics; for v (1.25 uM): turnover rate at 1.25 uM substrate; for v (1.25 uM) / v (10 uM): 100 mM K+ phosphate, pH 8.0; for v (10 uM): turnover rate at 10 uM substrate
Method: (§1) Dibenzylfluorescein (DBF) was purchased form Gentest, Woburn, Mass. […] DBF, BOMF and DBOMF were diluted from a stock solution of 2 mM in acetonitrile to a 4×concentration of 80 μM in 100 mM K+ phosphate buffer. Seven 1:2 dilutions were made of each substrate of which 25 μl was added to the appropriate wells. […] The cytochrome P450 isozyme CYP3A4 was diluted to give a 0.5 pmol enzyme per well and added in a volume of 10 μl/well in K+ phosphate, pH 8.0. Enzymatic conversion of the substrate to products was allowed to proceed for 1 hour with fluorescence reads taken every four minutes on a fluorescence microtiter plate reader. The solution was illuminated using an 485/20 nm excitation filter and fluorescence emission was detected through a 530/25 nm the emission filter.

CYP 2C8 = molecular target: T2, CYP 2C8 (Homo sapiens, UniProt P10632); assay: Kinetic properties of fluorescein-based fluorogenic substrates with CYP 2C8; type: biochemical; conditions: for v (1.25 uM): turnover rate at 1.25 uM substrate; for v (1.25 uM) / v (10 uM): 100 mM K+ phosphate buffer, pH 7.5; for v (10 uM): turnover rate at 10 uM substrate
T2 sequence (P10632 1-490): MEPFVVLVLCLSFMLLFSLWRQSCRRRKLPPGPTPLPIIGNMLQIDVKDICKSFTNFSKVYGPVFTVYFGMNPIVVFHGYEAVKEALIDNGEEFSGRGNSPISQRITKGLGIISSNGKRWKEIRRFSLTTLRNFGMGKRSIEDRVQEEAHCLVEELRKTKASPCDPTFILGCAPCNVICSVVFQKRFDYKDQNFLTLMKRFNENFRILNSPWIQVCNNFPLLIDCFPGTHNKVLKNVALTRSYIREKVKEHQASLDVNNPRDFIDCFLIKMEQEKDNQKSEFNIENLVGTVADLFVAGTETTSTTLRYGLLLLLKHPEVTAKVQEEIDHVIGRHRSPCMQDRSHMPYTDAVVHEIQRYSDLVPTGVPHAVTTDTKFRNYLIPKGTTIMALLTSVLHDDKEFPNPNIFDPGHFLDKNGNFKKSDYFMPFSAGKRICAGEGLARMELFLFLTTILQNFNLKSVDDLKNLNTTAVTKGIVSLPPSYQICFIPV
Method: as §1
In deviation from the protocol described in Example 32, the phosphate-based buffer (100 mM K+ phosphate, pH 8.0) was replaced throughout the procedure by 100 mM K+ phosphate buffer, pH 7.5. […] Specifically, the substrate dibenzylfluorescein (DBF) (purchased form Gentest, Woburn, Mass.) and the sensor of the present invention DBOMF were tested for activity with CYP 2C8.

CYP3A4 [3] = molecular target: T1, CYP3A4; assay: in vitro; conditions: pH 8, % inhibition, 10 μM drug; for inhibition at 20 min, 10 µM: Condition A, 20 min pre-incubation without NADP+ (no enzyme turnover), relative to 10 μM clotrimazole control; for inhibition at 40 min, 10 µM: Condition B, 40 min pre-incubation with NADP+ (enzyme turnover), relative to 10 μM ellipticine control
[4] = substrate: CCOc1ccc2cc(C#N)c(=O)oc2c1; assay: Kinetic properties of fluorogenic substrates with CYP 1A2; type: biochemical, human
[5] = substrate: CCOCOc1ccc2cc(C#N)c(=O)oc2c1; assay: as above; type: biochemical, human
[6] = substrate: N#Cc1cc2ccc(OCOCc3ccccc3)cc2oc1=O; assay: Kinetic properties of fluorogenic substrates with CYP 2C19; type: biochemical, human; conditions: other: — = too low to quantify
[7] = substrate: N#Cc1cc2ccc(OCc3ccccc3)cc2oc1=O; assay: as above; type: biochemical, human; conditions: other: — = too low to quantify
[8] = substrate: CCCCCCCCOCOc1ccc2cc(C#N)c(=O)oc2c1; assay: as above; type: biochemical, human; conditions: other: — = too low to quantify
[9] = substrate: CCCCCCCCOCOc1ccc2nc3ccc(=O)cc-3oc2c1; assay: as above; type: biochemical, human; conditions: other: — = too low to quantify
[10] = substrate: COCOc1ccc2cc(C#N)c(=O)oc2c1; assay: as above; type: biochemical, human; conditions: other: — = too low to quantify
[11] = substrate: CCN(CC)Cc1cc(=O)oc2cc(OC)ccc12; assay: as above; type: biochemical, human; conditions: other: — = too low to quantify
[12] = substrate: CC(C)Oc1ccc2cc(C#N)c(=O)oc2c1; assay: as above; type: biochemical, human; conditions: other: — = too low to quantify
[13] = substrate: CCOc1ccc2cc(C#N)c(=O)oc2c1; assay: as above; type: biochemical, human; conditions: other: — = too low to quantify
[14] = substrate: CCOCOc1ccc2cc(C#N)c(=O)oc2c1; assay: as above; type: biochemical, human; conditions: other: — = too low to quantify
[15] = substrate: COc1ccc(COc2ccc3c(C(F)(F)F)cc(=O)oc3c2)cc1; assay: Kinetic properties of fluorogenic substrates with CYP 2D6; type: biochemical, human; conditions: other: — = too low to quantify
Text: (§2) (respectively, MFC and MR).

[16] = substrate: CC(C)Oc1ccc2cc(C#N)c(=O)oc2c1; assay: as above; type: biochemical, human; conditions: other: — = too low to quantify
Text: as §2

[17] = substrate: COc1ccc(COc2ccc3nc4ccc(=O)cc-4oc3c2)cc1; assay: as above; type: biochemical, human; conditions: other: — = too low to quantify
Text: as §2

[18] = substrate: COCOc1ccc2nc3ccc(=O)cc-3oc2c1; assay: as above; type: biochemical, human; conditions: other: — = too low to quantify
Text: as §2

T1 sequence (P08684 whole entry): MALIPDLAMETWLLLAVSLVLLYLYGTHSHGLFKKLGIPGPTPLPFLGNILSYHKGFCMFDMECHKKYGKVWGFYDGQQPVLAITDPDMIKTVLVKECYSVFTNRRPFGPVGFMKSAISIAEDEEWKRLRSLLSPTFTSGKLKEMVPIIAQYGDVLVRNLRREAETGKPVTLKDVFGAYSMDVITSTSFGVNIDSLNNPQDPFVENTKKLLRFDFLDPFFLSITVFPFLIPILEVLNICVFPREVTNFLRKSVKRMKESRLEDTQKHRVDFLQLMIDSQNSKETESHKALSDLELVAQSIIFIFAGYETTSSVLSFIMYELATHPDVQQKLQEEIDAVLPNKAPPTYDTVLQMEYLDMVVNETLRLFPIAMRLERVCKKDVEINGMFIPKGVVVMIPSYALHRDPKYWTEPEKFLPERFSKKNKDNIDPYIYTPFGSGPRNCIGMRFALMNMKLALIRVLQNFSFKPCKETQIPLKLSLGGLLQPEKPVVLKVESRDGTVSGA

`CCCCc1oc2ccccc2c1C(=O)c1cc(I)c(OCCN(CC)CC)c(I)c1` [Amiodarone] was tested, and the “metabolism-dependent inhibitory activity against the CYP3A4 isozyme” value (shortened to “metabolism-dependent inhibitory activity”) (CYP3A4 [1]) was “at least partial metabolism-dependent inhibitory activity”.

`O=C(OCc1ccccc1)c1ccccc1-c1c2ccc(=O)cc-2oc2cc(OCc3ccccc3)ccc12` [DBF, Dibenzylfluorescein, reference compound] was tested, and the type of kinetics (CYP3A4 [2]) was “sigmoidal”, the K1/2max (CYP3A4 [2]) was 0.80 µM and the vmax (CYP3A4 [2]) was 4.30 min⁻¹. The “v (1.25 uM)” value (CYP3A4 [2]) was 3.27 min⁻¹, the “v (10 uM)” value (CYP3A4 [2]) was 4.40 min⁻¹ and the type of kinetics (CYP 2C8) was “MichaelisMenten”. The “v (1.25 uM)” value (CYP 2C8) was 0.16 min⁻¹ and the “v (10 uM)” value (CYP 2C8) was 0.37 min⁻¹.

With `O=C(OCOCc1ccccc1)c1ccccc1-c1c2ccc(=O)cc-2oc2cc(OCOCc3ccccc3)ccc12` [DBOMF, Dibenzyloxymethylfluorescein] the type of kinetics (CYP3A4 [2]) was “sigmoidal”, the K1/2max (CYP3A4 [2]) was 1.50 µM and the vmax (CYP3A4 [2]) was 16.00 min⁻¹. The “v (1.25 uM)” value (CYP3A4 [2]) was 6.00 min⁻¹, the “v (10 uM)” value (CYP3A4 [2]) was 15.50 min⁻¹ and the type of kinetics (CYP 2C8) was “MichaelisMenten”. The “v (1.25 uM)” value (CYP 2C8) was 0.55 min⁻¹ and the “v (10 uM)” value (CYP 2C8) was 1.54 min⁻¹.

In the case of `Cc1c2ccncc2c(C)c2c1[nH]c1ccccc12` [Ellipticine], the “metabolism-dependent inhibitory activity” value (CYP3A4 [1]; indicated by data for DBOMF) is reported as “at least partial metabolism-dependent inhibitory activity”, the inhibition at 20 min, 10 µM (CYP3A4 [3]; substrate BOMCC) is reported as 92% and the inhibition at 40 min, 10 µM (CYP3A4 [3]; substrate BOMCC) is reported as 100%. For the same molecule, the inhibition at 20 min, 10 µM (CYP3A4 [3]; substrate BOMR) was 97%, the inhibition at 40 min, 10 µM (CYP3A4 [3]; substrate BOMR) was 100% and the inhibition at 20 min, 10 µM (CYP3A4 [3]; substrate DBOMF) was 40%. It also gave an inhibition at 40 min, 10 µM (CYP3A4 [3]; substrate DBOMF) of 100%.

For `COc1ccc(Cc2nccc3cc(OC)c(OC)cc23)cc1OC` [Papaverine], the “metabolism-dependent inhibitory activity” value (CYP3A4 [1]; indicated by data for DBOMF) was “at least partial metabolism-dependent inhibitory activity”, the inhibition at 20 min, 10 µM (CYP3A4 [3]; substrate BOMCC) was 34% and the inhibition at 40 min, 10 µM (CYP3A4 [3]; substrate BOMCC) was 99%. The inhibition at 20 min, 10 µM (CYP3A4 [3]; substrate BOMR) was 69%, the inhibition at 40 min, 10 µM (CYP3A4 [3]; substrate BOMR) was 92% and the inhibition at 20 min, 10 µM (CYP3A4 [3]; substrate DBOMF) was 48%. The inhibition at 40 min, 10 µM (CYP3A4 [3]; substrate DBOMF) was 90%.

B1: CYP 1A2 (Homo sapiens) (protein)
chain: MALSQSVPFSATELLLASAIFCLVFWVLKGLRPRVPKGLKSPPEPWGWPLLGHVLTLGKNPHLALSRMSQRYGDVLQIRIGSTPVLVLSRLDTIRQALVRQGDDFKGRPDLYTSTLITDGQSLTFSTDSGPVWAARRRLAQNALNTFSIASDPASSSSCYLEEHVSKEAKALISRLQELMAGPGHFDPYNQVVVSVANVIGAMCFGQHFPESSDEMLSLVKNTHEFVETASSGNPLDFFPILRYLPNPALQRFKAFNQRFLWFLQKTVQEHYQDFDKNSVRDITGALFKHSKKGPRASGNLIPQEKIVNLVNDIFGAGFDTVTTAISWSLMYLVTKPEIQRKIQKELDTVIGRERRPRLSDRPQLPYLEAFILETFRHSSFLPFTIPHSTTRDTTLNGFYIPKKCCVFVNQWQVNHDPELWEDPSEFRPERFLTADGTAINKPLSEKMMLFGMGKRRCIGEVLAKWEIFLFLAILLQQLEFSVPPGVKVDLTPIYGLTMKHARCEHVQARLRFSIN
In the case of B1, the Km [4] is reported as 26.0 µM, the kcat [4] is reported as 0.733 s⁻¹ and the kcat/Km [4] is reported as 28200 M⁻¹ s⁻¹. The Km [5] was 11.0 µM, the kcat [5] was 0.35 s⁻¹ and the kcat/Km [5] was 31800 M⁻¹ s⁻¹.

B2: CYP 2C19 (Homo sapiens) (protein)
chain: MDPFVVLVLCLSCLLLLSIWRQSSGRGKLPPGPTPLPVIGNILQIDIKDVSKSLTNLSKIYGPVFTLYFGLERMVVLHGYEVVKEALIDLGEEFSGRGHFPLAERANRGFGIVFSNGKRWKEIRRFSLMTLRNFGMGKRSIEDRVQEEARCLVEELRKTKASPCDPTFILGCAPCNVICSIIFQKRFDYKDQQFLNLMEKLNENIRIVSTPWIQICNNFPTIIDYFPGTHNKLLKNLAFMESDILEKVKEHQESMDINNPRDFIDCFLIKMEKEKQNQQSEFTIENLVITAADLLGAGTETTSTTLRYALLLLLKHPEVTAKVQEEIERVIGRNRSPCMQDRGHMPYTDAVVHEVQRYIDLIPTSLPHAVTCDVKFRNYLIPKGTTILTSLTSVLHDNKEFPNPEMFDPRHFLDEGGNFKKSNYFMPFSAGKRICVGEGLARMELFLFLTFILQNFNLKSLIDPKDLDTTPVVNGFASVPPFYQLCFIPV
B2 gave a Km [6] of 14.0 µM, a kcat [6] of 0.0317 s⁻¹ and a kcat/Km [6] of 2260 M⁻¹ s⁻¹. The Km [7] was 6.4 µM, the kcat [7] was 0.00167 s⁻¹ and the kcat/Km [7] was 234 M⁻¹ s⁻¹. It also gave a Km [8] of 6.9 µM, a kcat [8] of 0.0283 s⁻¹ and a kcat/Km [8] of 4106 M⁻¹ s⁻¹. For the same molecule, the Km [9] was 0.7 µM, the kcat [9] was 0.00283 s⁻¹ and the kcat/Km [9] was 4048 M⁻¹ s⁻¹. It also gave a Km [10] of 3.2 µM, a kcat [10] of 0.00833 s⁻¹ and a kcat/Km [10] of 2060 M⁻¹ s⁻¹. It also gave a Km [11] of 8.5 µM, a kcat [11] of 0.0067 s⁻¹ and a kcat/Km [11] of 784 M⁻¹ s⁻¹. The Km [12] was 57.2 µM, the kcat [12] was 0.0325 s⁻¹ and the kcat/Km [12] was 568 M⁻¹ s⁻¹. The Km [13] was 41.0 µM, the kcat [13] was 0.0283 s⁻¹ and the kcat/Km [13] was 671 M⁻¹ s⁻¹. For the same molecule, the Km [14] was 16.6 µM, the kcat [14] was 0.095 s⁻¹ and the kcat/Km [14] was 5720 M⁻¹ s⁻¹.

B3: CYP 2D6 (Homo sapiens) (protein)
chain: MGLEALVPLAVIVAIFLLLVDLMHRRQRWAARYPPGPLPLPGLGNLLHVDFQNTPYCFDQLRRRFGDVFSLQLAWTPVVVLNGLAAVREALVTHGEDTADRPPVPITQILGFGPRSQGVFLARYGPAWREQRRFSVSTLRNLGLGKKSLEQWVTEEAACLCAAFANHSGRPFRPNGLLDKAVSNVIASLTCGRRFEYDDPRFLRLLDLAQEGLKEESGFLREVLNAVPVLLHIPALAGKVLRFQKAFLTQLDELLTEHRMTWDPAQPPRDLTEAFLAEMEKAKGNPESSFNDENLRIVVADLFSAGMVTTSTTLAWGLLLMILHPDVQRRVQQEIDDVIGQVRRPEMGDQAHMPYTTAVIHEVQRFGDIVPLGVTHMTSRDIEVQGFRIPKGTTLITNLSSVLKDEAVWEKPFRFHPEHFLDAQGHFVKPEAFLPFSAGRRACLGEPLARMELFLFFTSLLQHFSFSVPTGQPRPSHHGVFAFLVSPSPYELCAVPR
In the case of B3, the Km [15] is reported as 5.0 µM, the kcat [15] is reported as 0.01 s⁻¹ and the kcat/Km [15] is reported as 2067 M⁻¹ s⁻¹. It also gave a Km [16] of 18 µM, a kcat [16] of 0.0017 s⁻¹ and a kcat/Km [16] of 93 M⁻¹ s⁻¹. It also gave a Km [17] of 3.1 µM, a kcat [17] of 0.000817 s⁻¹ and a kcat/Km [17] of 263 M⁻¹ s⁻¹. The Km [18] was 8 µM, the kcat [18] was 0.00567 s⁻¹ and the kcat/Km [18] was 708 M⁻¹ s⁻¹.
